PMC2891831, “Insight into the Mechanisms of Adenovirus Capsid Disassembly from Studies of Defensin Neutralization” (PLoS Pathogens, 2010)
“Also recorded” adds a separate entry of the source.

What was measured:
HAdV-7p = assay: Virus-defensin binding assay, HAdV-7p; parameters: species or system human adenovirus; conditions: 20 µM HD5, mean of two or three independent experiments ± SD
Description: (§1) Figure 2 HD5 binding to HAdV. A) HD5 binding to a representative defensin-sensitive serotype (HAdV-5) was quantified by an equilibrium-binding assay. Data are the mean of the number of HD5 molecules bound per virion at the indicated HD5 concentrations from at least three independent experiments ± SD. Binding curves were fitted using Prism software. B) Binding of HD5 to additional defensin-sensitive (HAdV-7p) and resistant (HAdV-19c, -25p, -51p) serotypes expressed as a percent of HD5 bound to HAdV-5. Data are the mean of two or three independent experiments ± SD.
(§2) We assessed HD5 binding to additional serotypes after incubation with 20 µM HD5 (Figure 2B). The sensitive serotype HAdV-7p bound 69.3±15.9% of the amount of HD5 bound to HAdV-5 in parallel samples; whereas, the corresponding values for the resistant serotypes HAdV-19c, -25p, and -51p were 32.5±7.5%, 3.3±5.8%, and 24.6±12.0%, respectively.
(§3) To measure HD5 binding to HAdV-5 and -51, HD5 was serially diluted in PBS and mixed with 5 µg purified virus. […] The other half of each sample was used to make a standard curve for quantification. […] Virus bands were quantified using ImageQuant NT software (GE Healthcare). […] The amount of HD5 in the centrifuged samples was then quantified against the standard curve using Prism software. […]

HAdV-25p = assay: Virus-defensin binding assay, HAdV-25p; parameters: species or system human adenovirus
Description: as §1, §2, §3

HAdV species A = assay: Infection assay (hexon staining), HAdV species A; assay type: cell-based, human adenovirus; conditions: 15 µM HD5, A549 cells, hexon staining at ~48 h, vs. no defensin, at least three independent experiments
Protocol: (§4) To determine whether sensitivity to α-defensins is a general property of HAdVs, serotypes representative of HAdV species A–F were tested for infectivity in the presence of 15 µM HD5 or HNP1 (Figure 1). Wild type HAdVs rather than vectors were used for these studies, and infectivity was assessed by staining for hexon production. […] These studies indicate that sensitivity to α-defensins is species specific. In addition, particular HAdV serotypes are not equally sensitive to all defensins, indicating defensin sequence specificity as well.
(§5) Figure 1 Sensitivity to neutralization by alpha-defensins is AdV species specific. HAdVs were incubated with 15 µM HD5 (A) or HNP1 (B) and assessed for infectivity on A549 cells. Data are the mean of the percent infectivity compared to control cells infected with each virus in the absence of defensin for at least three independent experiments ± SD. The upper limit for quantification of this assay is 200%. […]
(§6) Prior to use in this assay, each virus stock was titrated on A549 cells. […] In parallel, wells were infected with two-fold serial dilutions of each virus to establish a standard curve for quantification with an upper limit of 200%. […] Total well fluorescence above background was quantified with ImageJ software. For each virus, samples were quantified by nonlinear regression against the standard curve using Prism software (GraphPad Software, Inc., La Jolla, CA).

Ad5.F35 = assay: Sensitivity of Ad5.F35 to HD5; assay type: cell-based, human adenovirus; conditions: data not shown; compared with HAdV-5 and HAdV-35
19cF = assay: Virus-defensin binding assay, 19cF; parameters: species or system human adenovirus; conditions: studies equivalent to Figure 2B, data not shown
Protocol: We then combined the GYAR substitution with the PB substitution in a single construct (PB/GYAR).
To measure HD5 binding to HAdV-5 and -51, HD5 was serially diluted in PBS and mixed with 5 µg purified virus. After 1 h incubation on ice, one half of each sample was separated by ultracentrifugation [209,000×g (avg.) for 2 hrs at 4°C] on a discontinuous gradient consisting of 300 µl of 30% nycodenz and 200 µl of 80% nycodenz in 50 mM NaCl, 20 mM HEPES pH 7.4 using an SW55ti rotor with adaptors (Beckman Coulter, Inc.). The visible virus band was collected. The other half of each sample was used to make a standard curve for quantification. All samples were boiled in reducing loading buffer and separated using a 16% PAGEgel (Expedeon, Inc., San Diego, CA) or 10–20% Tris-Tricine gel (Bio-Rad, Hercules, CA). The gels were stained with Deep Purple (GE Healthcare) and imaged on a Typhoon Trio. Virus bands were quantified using ImageQuant NT software (GE Healthcare). The amount of HD5 in each sample was normalized to protein V and hexon. The amount of HD5 in the centrifuged samples was then quantified against the standard curve using Prism software. Affinity and stoichiometry were estimated from the average data of at least three independent experiments using Prism software.

HAdV-4 (species E) = assay: Infection assay (hexon staining), HAdV-4; assay type: cell-based, human adenovirus; conditions: 15 µM HD5 or HNP1, A549 cells, hexon staining at ~48 h, vs. no defensin
Protocol: as §4, §5, §6

HAdV-F serotypes = assay: Infection assay (hexon staining), HAdV species F; assay type: cell-based, human adenovirus; conditions: 15 µM HD5, A549 cells, hexon staining at ~48 h, vs. no defensin; upper limit 200%
Protocol: as §4, §5, §6

HAdV-5 = conditions: ref [13], cited from earlier work
HAdV-19c = assay: Virus-defensin binding assay, HAdV-19c; parameters: species or system human adenovirus
Description: as §1, §2, §3

[1] = 20 µM HD5, mean of two or three independent experiments ± SD

B1: HD5: human alpha-defensin; synthetic, obtained from Peptides International; three disulfide bonds (PDB 1ZMP) (peptide, UniProt Q01523 20-94, looked up)
Defensin alpha 5: ESLQERADEATTQKQSGEDNQDLAISFAGNGLSALRTSGSQARATCYCRTGRCATRESLSGVCEISGRLYRLCCR
modifications: Defensin-5
HD5 bound, percent of HD5 bound to HAdV-5 (HAdV-7p): 69.3±15.9%
HD5 bound, percent of HD5 bound to HAdV-5 (HAdV-25p; [1]): 3.3±5.8%
level of HD5 binding (in words) (HAdV-25p; HAdV-25p): only a low level of binding
sensitivity to neutralization (infectivity) (HAdV species A): sensitive
sensitivity of Ad5.F35 to HD5 (Ad5.F35): comparable to that of HAdV-5 and HAdV-35
amount of HD5 bound compared to HAdV-5 (19cF): did not detect a reduction in the amount of HD5 bound; also recorded: did not result in a noticeable reduction in overall HD5 binding
sensitivity to neutralization (infectivity) (HAdV-4 (species E)): moderately sensitive
sensitivity to neutralization (infectivity) (HAdV-F serotypes): completely resistant to HD5-mediated neutralization and, in most cases, infection is actually enhanced
inhibition of HAdV-5 infection (HAdV-5; low micromolar concentrations): significantly inhibit HAdV-5 infection at low micromolar concentrations
productive infection by HAdV-5 (HAdV-5): almost complete block to productive infection
IC50 (HAdV-5; read-out: IC50 for HAdV-5 infection): 3 to 4 µM
HD5 bound, percent of HD5 bound to HAdV-5 (HAdV-19c; [1]): 32.5±7.5%
level of HD5 binding (in words) (HAdV-19c; HAdV-19c): only a low level of binding
